Results reported in IntAct's records for PubMed 24076405.

B1: SCL-interrupting locus protein (Homo sapiens), Q15468 (parent)
chain: MEPIYPFARPQMNTRFPSSRMVPFHFPPSKCALWNPTPTGDFIYLHLSYYRNPKLVVTEKTIRLAYRHAKQNKKNSSCFLLGSLTADEDEEGVTLTVDRFDPGREVPECLEITPTASLPGDFLIPCKVHTQELCSREMIVHSVDDFSSALKALQCHICSKDSLDCGKLLSLRVHITSRESLDSVEFDLHWAAVTLANNFKCTPVKPIPIIPTALARNLSSNLNISQVQGTYKYGYLTMDETRKLLLLLESDPKVYSLPLVGIWLSGITHIYSPQVWACCLRYIFNSSVQERVFSESGNFIIVLYSMTHKEPEFYECFPCDGKIPDFRFQLLTSKETLHLFKNVEPPDKNPIRCELSAESQNAETEFFSKASKNFSIKRSSQKLSSGKMPIHDHDSGVEDEDFSPRPIPSPHPVSQKISKIQPSVPELSLVLDGNFIESNPLPTPLEMVNNENPPLINHLEHLKPLQPQLYDEKHSPEVEAGEPSLRGIPNQLNQDKPALLRHCKVRQPPAYKKGNPHTRNSIKPSSHNGPSHDIFEKLQTVSAGNVQNEEYPIRPSTLNSRQSSLAPQSQPHDFVFSPHNSGRPMELQIPTPPLPSYCSTNVCRCCQHHSHIQYSPLNSWQGANTVGSIQDVQSEALQKHSLFHPSGCPALYCNAFCSSSSPIALRPQGDMGSCSPHSNIEPSPVARPPSHMDLCNPQPCTVCMHTPKTESDNGMMGLSPDAYRFLTEQDRQLRLLQAQIQRLLEAQSLMPCSPKTTAVEDTVQAGRQMELVSVEAQSSPGLHMRKGVSIAVSTGASLFWNAAGEDQEPDSQMKQDDTKISSEDMNFSVDINNEVTSLPGSASSLKAVDIPSFEESNIAVEEEFNQPLSVSNSSLVVRKEPDVPVFFPSGQLAESVSMCLQTGPTGGASNNSETSEEPKIEHVMQPLLHQPSDNQKIYQDLLGQVNHLLNSSSKETEQPSTKAVIISHECTRTQNVYHTKKKTHHSRLVDKDCVLNATLKQLRSLGVKIDSPTKVKKNAHNVDHASVLACISPEAVISGLNCMSFANVGMSGLSPNGVDLSMEANAIALKYLNENQLSQLSVTRSNQNNCDPFSLLHINTDRSTVGLSLISPNNMSFATKKYMKRYGLLQSSDNSEDEEEPPDNADSKSEYLLNQNLRSIPEQLGGQKEPSKNDHEIINCSNCESVGTNADTPVLRNITNEVLQTKAKQQLTEKPAFLVKNLKPSPAVNLRTGKAEFTQHPEKENEGDITIFPESLQPSETLKQMNSMNSVGTFLDVKRLRQLPKLF
B2: Centrosomal P4.1-associated protein (Homo sapiens), Q9HC77 (parent)
chain: MFLMPTSSELNSGQNFLTQWMTNPSRAGVILNRGFPILEADKEKRAAVDISTSFPIKGTHFSDSFSFINEEDSLLEEQKLESNNPYKPQSDKSETHTAFPCIKKGPQVAACHSAPGHQEENKNDFIPDLASEFKEGAYKDPLFKKLEQLKEVQQKKQEQLKRQQLEQLQRLMEEQEKLLTMVSGQCTLPGLSLLPDDQSQKHRSPGNTTTGERATCCFPSYVYPDPTQEETYPSNILSHEQSNFCRTAHGDFVLTSKRASPNLFSEAQYQEAPVEKNNLKEENRNHPTGESILCWEKVTEQIQEANDKNLQKHDDSSEVANIEERPIKAAIGERKQTFEDYLEEQIQLEEQELKQKQLKEAEGPLPIKAKPKQPFLKRGEGLARFTNAKSKFQKGKESKLVTNQSTSEDQPLFKMDRQQLQRKTALKNKELCADNPILKKDSKARTKSGSVTLSQKPKMLKCSNRKSLSPSGLKIQTGKKCDGQFRDQIKFENKVTSNNKENVTECPKPCDTGCTGWNKTQGKDRLPLSTGPASRLAAKSPIRETMKESESSLDVSLQKKLETWEREKEKENLELDEFLFLEQAADEISFSSNSSFVLKILERDQQICKGHRMSSTPVKAVPQKTNPADPISHCNRSEDLDHTAREKESECEVAPKQLHSLSSADELREQPCKIRKAVQKSTSENQTEWNARDDEGVPNSDSSTDSEEQLDVTIKPSTEDRERGISSREDSPQVCDDKGPFKDTRTQEDKRRDVDLDLSDKDYSSDESIMESIKHKVSEPSRSSSLSLSKMDFDDERTWTDLEENLCNHDVVLGNESTYGTPQTCYPNNEIGILDKTIKRKIAPVKRGEDLSKSRRSRSPPTSELMMKFFPSLKPKPKSDSHLGNELKLNISQDQPPGDNARSQVLREKIIELETEIEKFKAENASLAKLRIERESALEKLRKEIADFEQQKAKELARIEEFKKEEMRKLQKERKVFEKYTTAARTFPDKKEREEIQTLKQQIADLREDLKRKETKWSSTHSRLRSQIQMLVRENTDLREEIKVMERFRLDAWKRAEAIESSLEVEKKDKLANTSVRFQNSQISSGTQVEKYKKNYLPMQGNPPRRSKSAPPRDLGNLDKGQAASPREPLEPLNFPDPEYKEEEEDQDIQGEISHPDGKVEKVYKNGCRVILFPNGTRKEVSADGKTITVTFFNGDVKQVMPDQRVIYYYAAAQTTHTTYPEGLEVLHFSSGQIEKHYPDGRKEITFPDQTVKNLFPDGQEESIFPDGTIVRVQRDGNKLIEFNNGQRELHTAQFKRREYPDGTVKTVYANGHQETKYRSGRIRVKDKEGNVLMDTEL
partner: B1 chain

Variants of: B1
Conditions: with cpap_human CPAP

| effect of a mutation on the interaction | Variant |
| --- | --- |
| decreasing interaction strength | R405I |
| decreasing interaction strength | K419E |

Variants of: B2
Conditions: with stil_human STIL

| effect of a mutation on the interaction | Variant |
| --- | --- |
| decreasing interaction strength | E1235V |
| decreasing interaction strength | E1235K |
| decreasing interaction strength | F1229A |
| decreasing interaction strength | Y1210A |
| decreasing interaction strength | Y1208A |
